# Tested on: RsmA (His6-Thb-RsmA) (Pseudomonas aeruginosa)
# Experiment: EMSA
# Conditions: 17 nt 3' extension hybridized to DNA primer
substance,measurement,value
"RsmW sRNA, 3'-extended, labeled",Kd,11.5 nM
